From the supplement of paper PMC11780869

Test system: Bacillus subtilis
Experiment: cleaved RNA product abundance (RNA/gDNA barcode ratio) relative to median wild-type variant (ratio to wild type); higher = more accumulation of the downstream cleavage product
In short: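 Reporter mRNAs (truncated aprE or tetM) carrying barcoded, mutagenized RNase Y cleavage-site windows were made from oligos with a 9% error rate and integrated into the B. subtilis chromosome. Cultures grew in LB at 37°C from OD600 0.0003 to 0.3. Cleaved RNA was gel-selected, reverse transcribed and barcode-sequenced alongside genomic DNA barcodes, with UMI collapsing. Cleaved product abundance is the RNA:gDNA barcode ratio per variant, scaled to the median wild-type variant.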

[1] = experiment (reporter, strain, medium): exp 4a: truncated aprE reporter, strain BJT201 with 2% xylose (RNase J1 expressed), cleavage site: cggR-gapA (positions -7 to +36 mutated)
[2] = experiment (reporter, strain, medium): exp 2b: truncated aprE reporter, strain BJT200, cleavage site: cggR-gapA (positions -7 to +36 mutated)
[3] = experiment (reporter, strain, medium): exp 8a: truncated aprE reporter, strain BJT201 with 2% xylose (RNase J1 expressed), cleavage site: glnRA (positions -5 to +31 mutated)
[4] = experiment (reporter, strain, medium): exp 6: tetM reporter, strain 168, cleavage site: cggR-gapA (positions -7 to +36 mutated)

Sequence	cleaved RNA product abundance [1]	cleaved RNA product abundance [2]	also measured
ACAGACGAAGGAGCCGCAAAGAAGTTATTATGGGATGAATAATCCCTCAATATAGATATCTCTCACTTATTTAAA	0.323	–	–
ACAGACGAAGGAGCCGCAAAGAATTTATTTAGGAATGAATAATCCCTCAATATAAATATCTCTCACTTATTTAAA	0.0547	–	–
ACAGACGAAGGAGCCGCAAAGAAGTTATTAAGGTATGAATAATCCCTCAATATAAATTTCTCTCACTTATTTAAA	0.17	–	–
ACAGACGAAGGAGCCGCACACAAGTTATTAAGGGATGAATAATCCCTCAATATAAATATCTCTCACTTATTTAAA	0.483	–	–
ACAGACGAAGGAGCCGCAAAGAAGCTATTAAGGCATGAATAATCCCTCAATATAAATATCTCTCACTTATTTAAA	–	0.0626	–
ACAGACGAAGGAGCCGCAAAGATGTTATTAAGGGATGAATAATCCCACAATATAAATATCTCTCACTTATTTAAA	0.248	0.227	–
ACAGACGAAGGAGCCGCAAAGAAGTTATCAAGGGATTAATAATCCCTCAATATAAATATCTCTCACTTATTTAAA	0.301	–	–
ACAGACGAAGGAGCCGCAAAAAAGTTATTAAGGGATGAATAATCCCTCAATCTAAATATCTCTCACTTATTTAAA	–	0.137	–
ACAGACGAAGGAGCCGCAAAGAAGTTATTAAGGGATCAATAATGCCTCAATATAAATATCTCTCACTTATTTAAA	0.138	0.0953	–
CGACATGTCCCGCTTCTTTCATTAATACGTTAGCAATAGTTTTGCTATATACATTTACCTTTTAAGAGGAGGAAT	–	–	cleaved RNA product abundance [3]: 0.874
ACAGACGAAGGAGCCGCAAAGAAGTTATTGCGGGATGAATAATCCCTCAATATAAATATCTCTCACTTATTTAAA	0.869	–	–
ACAGACGAAGGAGCCGCAAAGAAGTTAATAAGGGATGAATAAGCCCTCAATATAAATATCTCTCACTTATTTAAA	0.197	–	–
ACAGACGAAGGAGCCGCAGAGAAGTTATTAAAGGATGAATAATCCCTCAATATAAATATCTCTCACTTATTTAAA	0.227	0.128	–
ACAGACGAAGGAGCCGCAAAGAAGTTATTAAGGGAAGAATAGTCCCTCAATATAAATATCTCTCACTTATTTAAA	0.594	–	–
CGACATGTCCCGCTTCTTTCATTATTCCAATAGCAACTGTTTTGCTATATACATTTACCTTTTAAGAGGAGGAAT	–	–	cleaved RNA product abundance [3]: 0.925
ACAGACGAAGGAGCCGCAAAGAAGTTATTAAGGGATGAATAATTCCTCAATATAATTATCTCTCACTTATTTAAA	0.254	0.298	–
ACAGACGAAGGAGCCGCAAAGAAGTTATTAAGGGATGAATAAACACTCAATATAAATATCTCTCACTTATTTAAA	0.172	0.0698	–
CGACATGTCCCGCTTCTTTCATTAATCCGTGATCAACTGTTTTGCTATATACATTTACCTTTTAAGAGGAGGAAT	–	–	cleaved RNA product abundance [3]: 0.346
ACAGACGAAGGAGCCGCAAAGAAGTTATTAAGGGAAGCATAATCCCTCAATATAAATATCTCTCACTTATTTAAA	0.551	–	–
CGACATGTCCCGCTTCTTTCATTAATCCGTTAGCAACTGTTCTGCTATATACATTTACCTTTTAAGAGGAGGAAT	–	–	cleaved RNA product abundance [3]: 0.446

Sequence	cleaved RNA product abundance [1]	cleaved RNA product abundance [2]	also measured
ACAGACGAAGGAGCCGCAAAGAAGTTAATAAGGGATGAATAATCCCGCAATATAAATATCTCTCACTTATTTAAA	–	0.0984	–
CGACATGTCCCGCTTCTTTCATTAATCCGTTAGCAACTGTTTTGCCATATACACTTACCTTTTAAGAGGAGGAAT	–	–	cleaved RNA product abundance [3]: 0.161
ACAGACGAAGGAGCCGCAAAGAATTTATTAAGGGATGAATAATCGCTCAATATAAATATCTCTCACTTATTTAAA	0.0604	0.105	–
ACAGACGAAGGAGCCGCAAACAAGTTATTAAGGGATGACTAATCCCTCAATATAAATATCTCTCACTTATTTAAA	0.522	0.557	–
ACAGACGAAGGAGCCGCAAAGAAGTCATTAAGGGATGAATAATCCCACAATATAAATATCTCTCACTTATTTAAA	0.2	0.142	–
ACAGACGAAGGAGCCGCAAAAAAGTTATTAAGGGATGAATAATCCCTCAATATAAATATCTCTCACTTATTTAAA	1.04	1.06	cleaved RNA product abundance [4]: 1.04
CGACATGTCCCGCTTCTTTCATTAATCCGTTAGCAACTGTTTTGCTAAATAGATTTACCTTTTAAGAGGAGGAAT	–	–	cleaved RNA product abundance [3]: 0.884
ACAGACGAAGGAGCCGCAAAGAAGTTATTAAGGAATGAATAATCCCTCAATATAAATAGCTCTCACTTATTTAAA	0.095	0.108	–
ACAGACGAAGGAGCCGCAAAGAAGTTATTAAGGGATAAATAATCCCTGAATATAAATATCTCTCACTTATTTAAA	0.734	–	–
ACAGACGAAGGAGCCGCAAATACGTTATTAAGGGATGAATAAACCCTCAATATAAATATCTCTCACTTATTTAAA	0.383	–	–
ACAGACGAAGGAGCCGCAAAGAAGTTATTAACGGATGAATAATCACTCAATATAAATATCTCTCACTTATTTAAA	0.106	0.0895	–
CGACATGTCCCGCTTCTTTCATTAATCCGTTAGCAACTGTTTAACTATATACATTTACCTTTTAAGAGGAGGAAT	–	–	cleaved RNA product abundance [3]: 0.378
ACAGACGAAGGAGCCGCAAACAAGTAATTAAGGGATGAATAATCCCTCAATATAAATATCTCTCACTTATTTAAA	0.214	0.177	–
ACAGACGAAGGAGCCGCAAACAAGTTATTAAGTGATGAATAATCCCTCAATATAAATATCTCTCACTTATTTAAA	0.0967	0.0954	–
CGACATGTCCCGCTTCTTTCATTATTCCGTTAGCAACTGTTTTGCTATATACATTTACATTTTAAGAGGAGGAAT	–	–	cleaved RNA product abundance [3]: 1.98
ACAGACGAAGGAGCCGCAAAGAAGTTATTAAGAGATGAATAATACCTCAATATATATATCTCTCACTTATTTAAA	0.174	–	–
CGACATGTCCCGCTTCTTTCATTAATCCGTTAGCAACTATTATGCTATATACATTTACCTTTTAAGAGGAGGAAT	–	–	cleaved RNA product abundance [3]: 0.785
CGACATGTCCCGCTTCTTTCATTAATCTGTTAGCAACTGTTTTGCTATATAGATTTACCTTTTAAGAGGAGGAAT	–	–	cleaved RNA product abundance [3]: 0.587
ACAGACGAAGGAGCCGCAAAGAAGTTATAAAGGGATAAATAATCCCTCAATATAAATATCTCTCACTTATTTAAA	0.358	0.316	–
ACAGACGAAGGAGCCGCAAAGAAGTTATTAAGGGACTAATAATCCCTCAATATAAATATCTCTCACTTATTTAAA	1.01	1.03	–

Sequence	cleaved RNA product abundance [1]	cleaved RNA product abundance [2]	also measured
ACAGACGAAGGAGCCGCACAGAAGTTATTAAGAGATGAATAATCCCTCAATATAAATATCTCTCACTTATTTAAA	0.215	0.134	–
ACAGACGAAGGAGCCGCAAAGAAGTTATCAAGGGATGAATAATCGCTCAATATAAATATCTCTCACTTATTTAAA	0.0908	–	–
CGACATGTCCCGCTTCTTTCATTACTCCGTTAGCAACTGTTTTGCTATATCCATTTACCTTTTAAGAGGAGGAAT	–	–	cleaved RNA product abundance [3]: 0.21
ACAGACGAAGGAGCCGCAAAGAAGTTATTAAGGGAAGAATAATCCCTCAATATATATATCTCTCACTTATTTAAA	0.563	0.393	–
ACAGACGAAGGAGCCGCAAAGAAGTAATTAAGGGGTGAATAATCCCTCAATATAAATATCTCTCACTTATTTAAA	0.308	–	–
ACAGACGAAGGAGCCGCAAAGAAGTTATTAAGGGATGATTAATCCCTCAATATTAATATCTCTCACTTATTTAAA	–	0.164	–
CGACATGTCCCGCTTCTTTCATTAATCCCTTAGCAACTGTTTTGCTATATACTTTTACCTTTTAAGAGGAGGAAT	–	–	cleaved RNA product abundance [3]: 0.166
ACAGACGAAGGAGCCGCAATGAAGTTATTAAGGGATGAATAATCCCTCAAAATAAATATCTCTCACTTATTTAAA	0.355	–	–
ACAGACGAAGGAGCCGCATAGAAGTTATTAAGGGATGAATAATCCTTCAATATAAATATCTCTCACTTATTTAAA	0.54	0.516	–
ACAGACGAAGGAGCCGCAAAGAAGTAAATAAGGGATGAATAATCCCTCAATATAAATATCTCTCACTTATTTAAA	0.258	0.151	–
ACAGACGAAGGAGCCGCAAAAAAGTTATTAAGGGATGAATAATCCCTCACTATAAATATCTCTCACTTATTTAAA	0.537	–	–
ACAGACGAAGGAGCCGCAAAGAAGTTGTTAAGGGCTGAATAATCCCTCAATATAAATATCTCTCACTTATTTAAA	0.198	–	–
ACAGACGAAGGAGCCGCAAAGAAGTTATTAAGGGATGAATAATCCCTCAATACAAATATCTCTCACTTATTTAAA	0.0683	0.117	cleaved RNA product abundance [4]: 0.23
ACAGACGAAGGAGCCGCAAAGAACTTATTAAGGGATGAATAATCCCTCAATATATATATCTCTCACTTATTTAAA	0.454	–	–
ACAGACGAAGGAGCCGCAAAGAAGTTATTAAGGGATGAATAATCCCTAAACATAAATATCTCTCACTTATTTAAA	0.323	–	–
ACAGACGAAGGAGCCGCAAAGAAGTAATTAAGGGATGAATAATCCCTCAATGTAAATATCTCTCACTTATTTAAA	0.114	–	–
CGACATGTCCCGCTTCTTTCATTAACCCGTTAGCAACTGTTTTGCCATATACATTTACCTTTTAAGAGGAGGAAT	–	–	cleaved RNA product abundance [3]: 0.158
ACAGACGAAGGAGCCGCAAAGAAGCTATTAAGGGAAGAATAATCCCTCAATATAAATATCTCTCACTTATTTAAA	0.4	0.265	–
ACAGACGAAGGAGCCGCATAGAAGTTATTAAGGGATGAATAATCGCTCAATATAAATATCTCTCACTTATTTAAA	0.141	–	–
